Measured values as given in patent US20190256846A1 (AGENCY FOR SCIENCE TECHNOLOGY AND RESEARCH, published 2019).

Assays:
[1] = molecular target: ErbB4 on MCF-7 cells (endogenous) (UniProt Q15303); assay: cell-based or functional assay
[2] = molecular target: T1, ErbB4 mutant lacking the C-terminal PDZ binding motif (ErbB4 APBM) (UniProt Q15303 26-1308, limits assumed); assay: GST pull-down from lysates of overexpressing cells, Western blot with anti-ErbB4
T1 construct: The mutation is a triple alanine substitution of the last three residues, not a deletion; Present in HEK293 cell lysate; also called mutant with a disrupted PBM
T1 sequence (Q15303 other isoform, or with tags, fused parts or gaps mutant limits assumed): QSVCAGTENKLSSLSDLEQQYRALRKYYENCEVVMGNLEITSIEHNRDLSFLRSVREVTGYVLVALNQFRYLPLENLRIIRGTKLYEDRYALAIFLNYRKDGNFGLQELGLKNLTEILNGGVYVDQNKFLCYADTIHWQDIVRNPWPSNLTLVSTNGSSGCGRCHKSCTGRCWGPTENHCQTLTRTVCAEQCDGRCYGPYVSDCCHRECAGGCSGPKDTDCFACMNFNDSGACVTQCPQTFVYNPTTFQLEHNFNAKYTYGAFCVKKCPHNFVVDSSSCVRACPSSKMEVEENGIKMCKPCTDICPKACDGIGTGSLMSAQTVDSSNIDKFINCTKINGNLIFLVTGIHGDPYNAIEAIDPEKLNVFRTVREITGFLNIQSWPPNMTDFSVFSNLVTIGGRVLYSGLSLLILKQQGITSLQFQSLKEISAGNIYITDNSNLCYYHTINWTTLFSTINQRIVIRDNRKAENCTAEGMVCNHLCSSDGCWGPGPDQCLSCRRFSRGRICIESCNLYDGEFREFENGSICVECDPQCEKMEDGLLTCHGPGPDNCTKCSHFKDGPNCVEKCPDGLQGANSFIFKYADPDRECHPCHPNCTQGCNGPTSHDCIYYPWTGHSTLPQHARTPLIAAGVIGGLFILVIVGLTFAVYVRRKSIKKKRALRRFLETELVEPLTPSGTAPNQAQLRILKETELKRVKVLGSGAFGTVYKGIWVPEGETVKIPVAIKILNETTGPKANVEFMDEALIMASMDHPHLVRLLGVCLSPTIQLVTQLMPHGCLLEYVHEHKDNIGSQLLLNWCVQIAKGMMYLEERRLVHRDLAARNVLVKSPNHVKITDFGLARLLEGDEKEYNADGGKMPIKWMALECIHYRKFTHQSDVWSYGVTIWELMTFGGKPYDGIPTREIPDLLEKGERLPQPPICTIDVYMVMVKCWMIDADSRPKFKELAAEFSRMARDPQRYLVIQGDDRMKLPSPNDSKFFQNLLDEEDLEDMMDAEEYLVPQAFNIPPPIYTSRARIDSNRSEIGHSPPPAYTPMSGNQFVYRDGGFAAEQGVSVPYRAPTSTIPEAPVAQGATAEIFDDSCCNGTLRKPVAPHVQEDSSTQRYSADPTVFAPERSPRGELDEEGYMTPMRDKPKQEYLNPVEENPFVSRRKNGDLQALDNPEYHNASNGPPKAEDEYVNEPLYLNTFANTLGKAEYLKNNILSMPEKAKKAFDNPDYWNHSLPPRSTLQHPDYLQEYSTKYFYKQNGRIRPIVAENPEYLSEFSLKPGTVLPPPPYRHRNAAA
Procedure: ErbB4 and mutant was transfected into HEK293 cells using JetPrimePolyPlus transfection kit (PolyPlus Transfections) according to manufacturer's instructions. […] GST and GST ZO-1PDZ1-3 domain fusion proteins were generated, purified, and bound to Glutathione Sepharose-4B (GE Healthcare Life Sciences) using standard protocols. Bound proteins were quantified by SDS-PAGE by using known amounts of BSA as standards. 18 μl of GST beads were incubated with 1 μg of GST fusion proteins. Unbound proteins were removed by washing with ice cold PBS. 300 μg of the transfected cells were then added and incubated at 4° C. for 2 hr followed by washing 4 times with ice cold lysis buffer. The bound fractions were eluted with 4×SDS-PAGE sample buffer, separated by SDS PAGE, immunoblotted onto PVDF membranes and probed with Rabbit anti-ErbB4 antibodies.

ErbB4 on MCF-7 cells (endogenous), sequence (Q15303 26-1308 limits assumed): as the sequence (Q15303 other isoform, or with tags, fused parts or gaps mutant limits assumed) above, with A1281T, A1282V, A1283V counted along it

Erk activation (Erk phosphorylation, Western blot) in Tjp1 shRNA MCF-7 cells, 15 min stimulation [1] [ng/mL]	Erk activation (Erk phosphorylation, Western blot) in control shRNA MCF-7 cells, 15 min stimulation [1] [ng/mL]	binding result [2]	Molecule
2.5	50 to 100	–	human NRG-1 (Cell Signalling Technology, Cat. #5218) (from UniProt Q02297 177-241) (ligand)
–	–	no binding	GST fusion protein carrying the three PDZ domains of Tjp1 (GST-Tjp1 PDZ1-3) (other, human, UniProt Q07157 1-503, looked up, domain: PDZ 1-3 domains; also called GST ZO-1PDZ1-3 domain fusion protein; ZO-1 (Tjp1) PDZ domains; not shown: glutathione S-transferase (GST) tag encoded by the pGEX 4T-1 vector) MSARAAAAKSTAMEETAIWEQHTVTLHRAPGFGFGIAISGGRDNPHFQSGETSIVISDVLKGGPAEGQLQENDRVAMVNGVSMDNVEHAFAVQQLRKSGKNAKITIRRKKKVQIPVSRPDPEPVSDNEEDSYDEEIHDPRSGRSGVVNRRSEKIWPRDRSASRERSLSPRSDRRSVASSQPAKPTKVTLVKSRKNEEYGLRLASHIFVKEISQDSLAARDGNIQEGDVVLKINGTVTENMSLTDAKTLIERSKGKLKMVVQRDERATLLNVPDLSDSIHSANASERDDISEIQSLASDHSGRSHDRPPRRSRSRSPDQRSEPSDHSRHSPQQPSNGSLRSRDEERISKPGAVSTPVKHADDHTPKTVEEVTVERNEKQTPSLPEPKPVYAQVGQPDVDLPVSPSDGVLPNSTHEDGILRPSMKLVKFRKGDSVGLRLAGGNDVGIFVAGVLEDSPAAKEGLEEGDQILRVNNVDFTNIIREEAVLFLLDLPKGEEVTILAQKK
